Results as given in the DeepSol protein solubility set.

Assay: soluble on expression in E. coli; label from the status in PepcDB or PDB records

| Sequence | soluble on expression in E. coli |
| --- | --- |
| MAHHHHHHMQNSVGDVINLISKSEIRYEGKLHSINTEENTVSLSNVRIYGTEGRKGGGVEEVPPTEQLFEFIVFRGSDIKDLTVFRDSSSPQARDPAIVEVHAPARGRGGRAAAAAPAASATAASSAATRGSRSFYDEAQPYSRGGGGGRRGGYGAGRYNNNNGGGSNNSNSNRNHRGGYGGRGGSGNYRRNYRDYHTGQDFKPADIGATEKFEGDFDFAKCREEFEKKKSEFEKAKEDAKSHAKAYDKSSFFDTISCDQKEKNNMNRAEMRKADTETFGPEMVSSMRGFRRGRGGRGRYQQR | not soluble |
| MAHHHHHHMQTHISRAVEEGRHTKEAAAYFESIMNDKPEFRLFMREAQRLIGDQDPRGLTRYQQTHYSEKLSRYMSGVASERLMRAHTEDENTRRHTHDGSPTGENYWFEAGQILASPTVPSFVKDEVLREMRGGRKEDSPAFEEPKAVAEMEADDEGFAEHLRRQRKRLLSPDDHLN | soluble |
| MAHHHHHHMQYVERLFSAYGHVADVKIVFEGSVQFAEVMYNAVDDADSAIAALHHHYCASRNTPLVVLYHVRSPCISEYGRKVGREYAQAAALGRDPSYIPLEGFDENYPRTDVPPPPSDREIFEGARWNDSSGPAGEGRLHSY | not soluble |
| MAHHHHHHMRARPSWHLRLNKNRDDVTTFRGFPATARSCCSIGSISGLQALPHPMELSSVEYRSEGWTHAICRLYRTLYKLHAKQLHPIQREFGDRFVQTEFQRHIDASEKHARIFYQSWYSYAVQLLVGQTSRDMTAEEQQQLTPEQKETMRRLRSHVLQAKQSEPGFHL | not soluble |
| MAHHHHHHMRHCHMSFAYCFCPFSAHRSASSQGYTRLMRRLSGSTCLLTGVTRAGRWLPTTAPCLSLCSFFLTASRRKQSTSGIGGDVRDIEETHPDFQPRLVSADLAEDEIAMVKKDIDDTIKSEDVVTFIKGLPEAPMCAYSKRMIDVLEALGLEYTSFDVLAHPVVRSYVKEVSEWPTIPQLFIKAEFVGGLDIVTKMLESGDLKKMLRDKGITCRDL | not soluble |
| MAHHHHHHMRPSFGSLDYNVLSNFCEKLFLAADKNDRNEVITKKTLQMFFTSKIFYEILNHFKNLSTEENKKYVYAKYKTIYLKKCFDNNITPEPGSPKNEDAVSEVDNKIDDEDKEEEEQITNDKYEHYEENNNDYYKGREKIGTQSKGTEDSVDFNLSLKHAQYAVNGIIKIIYIPRYSETRAQIIPFIFRIIFFFNGEEETKNIGYII | not soluble |
| MAHHHHHHMRRVLLFRNRVDFVATLLQQGRLADMLMLQHFTSRTPQKPPAGNAAERNSGGTKVSVGETSRRALLTRCEAVKAKAMSTPCTDWLADAYGSGEWCALSESRDMVRVVASDNDPTRVKLRGTFPVLVQEGSSPASVRLAASKESGEALIVTVPLVQSGEKVRSSAIGGGIRAVTLKEADGSVVSDAATSVDAFAAEQNILSAAVCSGILGKLEEICALHATHTVRYDALLVRNPAVQKRLSQLACARFSLDALSSFVASAAVDEPMPLVESVALRMHAKHALAIGMGSARDIIHGTAMLKASPHRSKPERLIDYPYAQQLFASERYVLSSLGASSAAETMRHFTPLLMQPQTHMPAGVQGPLASLLLGGKGGNVNLAAPHANLRVSAAFLEKDIAAMLQRIQQQKKRADPLFVMAIAQYVAELFANTAVVYRTTASLTHEDDSAPRDWLLTQAFCADSSARRATILCEWDLSSAARKAIGKAADLNGCTTHPVELMNAEPARKPKVPSKSAAASVTQEAN | not soluble |
| MAHHHHHHMRSTSALYRYACDEEGCVSHSELVKLFHGIDVALGTDADATAKADDMTPAPPPPALADKMLLAYAPNLCFPTHLTLSQSYLGDAGLAAFMRMLPVLRWVRAIEARGVGAGPRTIEALSGALTAYLVEGCEEAAALPTVATMGDSVSGAEQLAGGRLPALELVDLRDNDGIYALSGQRLLTALRKRRLMLRAWCAAHAGVGDVVPALEVLVDLDALPPSTANALHEWNEGAANLKYQRMLARETHRWQEQVQVFTVRSAVSEAMKCSDSDMPGTAVAGAAAGQPVGEHVIFRLPSSADGDSQMTQMTCEVNACMSDFLTASCCLSSAKEAAPQPAHVVSGSSSLACPLPTLDGVRAALQVCIDFGADTLAILPHTNATLWYVASVWQQQQKEQHATTPSSSADTAEYVQLNYWEAKANVAALLRGLQANPALETELETSSQAGGVVIQRHLYRLRELYVQLDQNDAPHEDAICTARVAGVGATPLSEMVALYYRIVAALVTRRFSETHLPSMRACEQHISDVTEHVLNHLVVGEVSSEALEARIERLRSSTDAGSVPSGRPSGASDFSQSTRALPPVMAQCLYHLRRHQAEAEAWVKTYAGTAVAAPQPSSSSAAAAPIHAFHACHCADGLRRHMDECVAPTSSNEGLSSNLLPLPCTSCCYHALQAAQTLLQSPGEGSSGECELCARWAILEPVRRALPRELRMFFLDMVIRHRSRVRGGCAYVPSLDSVTGVGAPLPLSMVDWLAYTEHQSENWAKVLRVFGEWYRLRALESYGIAEARTLLRQPPT | not soluble |
| MAHHHHHHMRTDKCVSEAVQTFREAQNLLPTLYTHLSALENIMTQKGALVGAARRREQCFAKALPASHFLCMDTGTEERTLPQATTAGPSCVHTTSPVMTSPLGVLAAFSASTVHHLVAQHQRDVEELLGVVSRITQRSWSQKVEQLKSKIAQLERASEVGETPEHPPSAGGIVAVSSTPASSSYFATASELSVALYGFAACLLKMGNVLQETMLALRKDARLSLMAHAAPGSAALLTSTSADTASHLAAMLAREDRTSEGMSLLPMHSSHCGSLHEATSASSPFSGAAGVQAAPLQPMRLVDAVGKLKSFLEARWKSCCDSYLAPESHLLLALV | soluble |
| MAHHHHHHMSGITVQLVFAFVGTRVPYFMPESATAASSPARSPFGNASSVSFNAAAQPTLRADSARTSPRLTPCIPTNLFTAHGLLSHLAKALEPSLHAAANPEAATAESASLSPTAPLPFHKPPVFELFDYASLDPLEGSAALRDEQVLLVLCDIATTAQLVEALQLEWLEVYSGVHHPHHRSCSASTPEPAHTTDMAVCTTEEKLRNVAHAQQALCKPVGLHLSLLRKELLSREATLAAQKEQLAQMRSCTTEGTAPAAPATASGSDGLSTPMLSGRAASFPLLVELEPSLSSEPAPSATDATHLQKLEAPLALCEARVRAVESLMQRAAKHHTKLLGLAASERATEEAFQRGNVSRACAEYLEHTEQDRSAAEAIIADYQVEMTRQVKVVRQLIAYITQVRKLASKAKYEMGVVELILSRLSLTSLRPRLMKEAEALLRRRVILRRAARRQMLLLQETEFVKLQQDLESFSQRMEVQKVLPEKVRWYLRAPLPSLMPEEDPVATLLDHALIDREEDEAQELVEKTRVYTADSSDPEKNALQITEALLPVERLARRLEEARASAAQYKSRVEELEERLKLYETAEALSPPPLQDSAVKSPSTERPAEGGGSFEEG | soluble |
| MAHHHHHHMSGRCFSKSLESDVDSAAAAESSLSATEVSTDGYRTGKQPRHVAFLLEKDLKETDTEEVPRAAFAGRRGGAGARPTEEQWSWSGRAEADALRQRALQCGEDFVRVASGLGYEVVAHTPTAFLKRGMTEKTAALFGVAQPEKQGGTGLAVARSATARASTGAVLLSSPSAAETTVTLAAPFSSGGSSVFPRKGELDSCSSRSSSPGTEDQVGMVPVLSPLLQGSEPGQRRLSTDASLRALEVQTPRTTGAHAGVYRYPATIASLHPLQDSTPNSVADGNGVHTSPHRSSRTGFGAEHHANDGANPPGPAIANSTRAVHWTPTTRHPSPSRGSPASHRALTPRTVFPTGNHPVTASLMVPGQQSDAFAVRLSIMDVTSSRTNSNTNTSMSTEHLNGHEFVNVGGSQNTNNRFFTSSTDALNTPAVRMTDDEDWLRATGRLIQ | not soluble |
| MAHHHHHHMSISGAAAPAPLRGRESGGNVPGSMGALIKKLHPLYTQRVRPLEEMYSFDVFRPSWYEETILNERPFITLFGPWSAGKTTFINYLLQSNDLWTGPQPTTAEFTVVMYGKEPGPVAGQALANSKHLPFKGLLDFGESFIRNLKGFQAPHALLERVTLIDTPGVLESAKDIHQRKYDYVNVCRWFAERSDLIFVFFDPSKLDAGGELRQLFQTSFKGFENRLRLVLNKADTISTQELMRVYGSLFWNLSNFINTTEPPRVYVGSFWDKPYSPNSFSRLFAEEKLDLLHELLEVIPQQARDKKVASLIRRAKEVLVHAVILGGIRADLPLLFGKSKAKKKAAEQLPRRYELIGARYKMNHRDFPPVQAYRSFLERFDVAKFPPLQKAEKAGLIRGIQELIDTILPSMLRPVCNTRAANPFEEDKQTGLLSMYRDHVLLQRDGRPGMQGGTDKVASTMGQGVPDSATTGPSSSVAAAPASGPSSLLGPGPAVTALSASPPFIELPSRAMAASSTAVAASSPPPPPPSSAAATSSPADMQAMMAIMQQMVAYQQQQQQQQDRQSSSAPATVNSHGTLSSSSSETSGCLAESSVPVTPQESNLNSEPQPPTVVPQLGLPNSCATQISAWAGGDESKSQH | soluble |
| MAHHHHHHMSKAVQFSVLKQGSLEPGSWTQRVLTIDTKSDTVTISRKHHPEHVFYHSLEVAHVQMWPRYKASEISGHFNSLKAKMTLRIFGKQVPVPKMSVEAVTTADVAEMIRVPSVPSSISLDASLNIERPPVAAATLSQKQKERHPATATSANDDLCDSWMIRFTSIDSYELAVMLLRNMRNTEGKRKRLFGDHVLQDLERVQKAWAEETTGAKSIGGALRSGS | soluble |
| MAHHHHHHMSSNDGLSEDTVMYIKDNNIGQLMEYILRCIITDKPTKPLEYVHELTASPLPPRVVLAGPPASGKGTQARHICSYYKRAIGKKPVHVSSGDLLRAEVAQGTHLGKIAENFMQRGELVPDSLIISIIRNRLTQEDAVMNGWLLDGFPRTRSQAIALDAAGLCPRIFVVLDTPDDVLFGRVEGRRTDPVTGIIYHLKYNPPPENDTALLERLQHRDDDTREVLGPRLETYHSMVEGLLDYYGSIMYHVDGNRPEAAITKDITEYLQNHNVA | soluble |
| MAHHHHHHMSSTEEYYKLMEVILHILKKHKRHVECLKILLKLNRRDKIKDLLFECGDMITCKQMALICSRHSIHLEFTQEEVIRYPHMNLNQLASLSSGEHLSSIFLKLAKDLDVEEPKLPEDIYKTHLEEKRNTNVWDSAKQNLSASFVNAFVNAAFCKDKLMTVNSSL | not soluble |
| MAHHHHHHMSSTSTTHPQLLLQQSKVKYLMKVCRPLCQFTQKCNRGSWVERTFGAERKKASSASEDNDLLSMHLPFSSDTAPPCGYSTTEAVRLISLPYHPHVYAYCLFESRLIFERAVLHGAIAPNVKPSQFFVHPISVMRHPEKFKLFFGEERSDVLLRLLVDLLGEYDGDDRSVVQKCRAKGVSNENWVPFLRGLGLCLAMGDIASSQATFVMEDCITGGGADCGLSLPGSYEKRGSVAAELLMEASVELGSLTLANLSLSLYRQFLPEVPLTASKKVTICTTRCERRFLEWNQRCLKTGPRR | not soluble |
| MAHHHHHHMSTNISPNIKKGGVTAADLMQLQGAALRLRSQCTQREADNRRLTQKLREYEEQLFFLRANELILRKQVSVWSSYHRLFAQPLYEARLAVERYKHEAHQSLVHEMQVDRQRRSSLANAANEKRERERAGLQARLRQLQELQDEKRKKNEELELRLRRASEESLRAQKQASKLKDELAYCMDRLEESERERERVKRHLSEHEAALLKARHNVAGMGHFEEEIRSRDTVIAQLQRTVRELNTIMAQQSASRLEEANGENTPPQHEAEEKKLAASPQRLLNDSCDSEWVLKQSIGWFRSKMEREMKPSTPRRQMFEPCSSSAHPAPSLSSFSWMEGRCDSGDVDLQEFLSRELQAPLL | not soluble |
